Laboratory results from the supplement of paper PMC9942255.

System: Bacillus subtilis DB104 (SP-AmyQ fusion secretion)
Experiment: AmyQ secretion efficiency, weighted average sort bin (1 = best secretion, 10 = worst) (bin number (weighted average, 1-10)); higher = lower secretion efficiency
How it was run: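 The secretion score was taken as the read-frequency-weighted mean bin number, normalised to beads per bin, with low-abundance sequences excluded. Bins came from large-particle flow cytometry sorting of occupied alginate beads (~65 nL, about 0.3 cells each, with fluorescein-starch) into 10 equally populated groups by green/red fluorescence ratio after about 13 h at room temperature and nile red staining. The cells were a B. subtilis DB104 library with mature AmyQ fused to designed signal peptides, integrated at amyE, and each bin's amplicons were Illumina-sequenced.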

MRPVFPLILSAVLFLSCFFGARQTEASYSKR
AmyQ secretion efficiency: 2.56

MTKLKMLSMLTVMIASLFIFSSQCLAVQY
AmyQ secretion efficiency: 2.27

MKSKGSIMACLILFSFTITTFIAFITISAFSN
AmyQ secretion efficiency: 5.09

MKLSVKIAGVLTVAAAAMTAKMYATMKGN
AmyQ secretion efficiency: 6.84

MKKRKRRNFKRFIAAFLVLALMISLVPADSLAKST
AmyQ secretion efficiency: 2.3

MLCVMMLLFSAIASFPVSRQAKDQ
AmyQ secretion efficiency: 7.53

MMKKLFHSTLIVLLFFSFFGVQPIHAKKR
AmyQ secretion efficiency: 2.74

MKKCLLFLTTIALILSLSTNAFAANR
AmyQ secretion efficiency: 1.56

MRMLWRSLALCGLALTLAPCAQADDD
AmyQ secretion efficiency: 4.62

MMSLLSTLLIGIMLLTFAPSAFAKQD
AmyQ secretion efficiency: 1.88

MKKWIYVVLVLSIAGIGGFSVHGASS
AmyQ secretion efficiency: 7.27

MKRFSTAYLLLGILCSAAVFLIGAPSSALGAEV
AmyQ secretion efficiency: 3.5

MKKIKKRKFMFGLVMGFSQFQPSTVFAADK
AmyQ secretion efficiency: 7.57

MLCVMMLLFSAIALFLVASFPVSAQAKDQ
AmyQ secretion efficiency: 7.1

MNKPTKLFSTLALAAGMTDEEEEEAGTIHAQQP
AmyQ secretion efficiency: 7.16

MNFMFTVVSALSISALALSVSGVASAHEI
AmyQ secretion efficiency: 3.15

MKKIMSAFVGMVLLTIFCFSPQASARRR
AmyQ secretion efficiency: 6.47

MKVLLSALLLLLFAFEPSYSGKKL
AmyQ secretion efficiency: 5.87

MTGSSVITCVMAASLTLGSLLPAGYATAKED
AmyQ secretion efficiency: 4.28

MKSKWMSGLLLVAVGFSFIALFATQVMVHAGET
AmyQ secretion efficiency: 7.59

MGKRGGSGSSLFISSAVLLSILLPSGQAHAQSA
AmyQ secretion efficiency: 1.07

MRRGKKLSVAVAASFMSLSISLPGVQAAEG
AmyQ secretion efficiency: 1.3

MKLRKVRRRKKRSLGLLVSASPAFATSP
AmyQ secretion efficiency: 8.72

MRPVFPLILSAVLFLSCFFGATQTEASASKR
AmyQ secretion efficiency: 2.13

MLKRTSFVSSLFISSAVLLSILLIASTAHAQSA
AmyQ secretion efficiency: 3.17

MLGMGWMVGLLAGCLAAGGFSYNAFATEN
AmyQ secretion efficiency: 6.54

MTKLKMLSMLTVMIASLFIFSSQALDVQY
AmyQ secretion efficiency: 6.18

MKKELLASLVLCLSLDDDDETNEVFAATT
AmyQ secretion efficiency: 5.98

MKKWIYVVLVLSIAGIGGFSVHCASS
AmyQ secretion efficiency: 6.47

MKLWMRKTLRRKKRKVTFGLVSPPAALMADKP
AmyQ secretion efficiency: 7.28

MPYLKRVLLLLVTGLFMSLFAVTATASAQRK
AmyQ secretion efficiency: 2.03

MKVCQKSIRFLVSLIIGTFVISVPFMANAQSD
AmyQ secretion efficiency: 1.22

MMKKGSLFFLLAGALTATVLFGTCAVDVPGIISPKTAEAASQ
AmyQ secretion efficiency: 3.32

MTGTIITATTAVVLGSTLFAGAASAQSI
AmyQ secretion efficiency: 2.31

MRKSLITLGLASFTILVIGTSSFLIPFTSKTASAETL
AmyQ secretion efficiency: 1.81

MIAYFKCLLLVTIMFLGVLFGMQQANHG
AmyQ secretion efficiency: 6.01

MFKKHTISLLIIFLLALTSAVLAKPIEAHTV
AmyQ secretion efficiency: 2.73

MIAYFGKCLLLVTIMFLGVLFGMFATQQANHG
AmyQ secretion efficiency: 6.56

MGLGKKLSVAVAASFMSLSISLPGVQARKR
AmyQ secretion efficiency: 6.96

MRKRKKKSMLTVMIASLFIFSSQALAVQY
AmyQ secretion efficiency: 6.79

MKKLLAAGIIGLLTVSIASPQFAAEK
AmyQ secretion efficiency: 6.75

MGMTSNLSLGVASAALGLALVGGGTWAAFN
AmyQ secretion efficiency: 8.22

MKRLLVSLRVWMVFLMNWVTPDRKTTPSGAAAAVY
AmyQ secretion efficiency: 6.68

MKLSVKIALVLIVAAAAMTAKMYATAKGN
AmyQ secretion efficiency: 3.77

MKKLLAAGIIGLLTVSIASPVFAAEK
AmyQ secretion efficiency: 2.43

MKKQIITATTAVVLGSTLFAGATGFAFAPASAQSI
AmyQ secretion efficiency: 3.63

MTKKAWFLPLVCVLLISGWLAPAASASDQTT
AmyQ secretion efficiency: 2.72

MKSCKQLIVCSLAAILLLPPEVSFAADS
AmyQ secretion efficiency: 2.83

MKKRLIGFLVLVPALIMIEANKK
AmyQ secretion efficiency: 6.53

MKKRLIGFLVLVPALIMSGITLIELNKK
AmyQ secretion efficiency: 6.99

MKKRFSLIMMTGLLFGLTEEEAFAAEK
AmyQ secretion efficiency: 2.39

MGLGKKLSVAVAASFMSLSISLDEEDDEVQAAEG
AmyQ secretion efficiency: 1.62

MKKLIVLLFFSFFGVQPIHAKKQ
AmyQ secretion efficiency: 5.47

MKSKGSIMACLILFSFTITEDEEEETISAFSN
AmyQ secretion efficiency: 6.65

MKVLLSALLLLLFAFEPSHSGKKL
AmyQ secretion efficiency: 6.88

MTKKFTIMSAWFLPLVCVLLISGWLAPAASASAQTT
AmyQ secretion efficiency: 1.82

MFNRLFRVCFLAALIMAFTLPNSCYAQKP
AmyQ secretion efficiency: 2.79

MKKVLMAFIICLSLILSVLAAAKAESV
AmyQ secretion efficiency: 4.23

MRKIIGWILLLCIIPLFAFTVIASGKEV
AmyQ secretion efficiency: 7.63

MNKPTKLFSTLALAAGMTEDEAGGAGTIHAQQP
AmyQ secretion efficiency: 2.79

MKKWIYVVLVLSIAGIGGFSVHMASS
AmyQ secretion efficiency: 5.57

MKRKLLSSLAISALSLGLLVSAPTASFVAES
AmyQ secretion efficiency: 6.45

MRGTSVVGFLSVLGLAAVFPLTAQAEKA
AmyQ secretion efficiency: 2.91

MKKIVSILFMFGLVMGFSQFQPSTVFAAED
AmyQ secretion efficiency: 2.13

MKRLLVSLRVWMVFLMNWVTPDRKTSAAAVY
AmyQ secretion efficiency: 5.14

MKKKQRAGLTASAIVGTTLVVTPAEAATI
AmyQ secretion efficiency: 6.45

MNFKKTVVSALSISALALTVTSISVSGVASAHEI
AmyQ secretion efficiency: 3.48

MRKKRMIMMVITCVMAASLTLGSLLPAGYASAKED
AmyQ secretion efficiency: 3.07

MLKRTSFVSSLFISSAVLLSILKKKGQAHAQSA
AmyQ secretion efficiency: 7

MKKKRRKLALTAAAGLGLTALHSAPAAKAAPL
AmyQ secretion efficiency: 2.69

MRNLTKTSLLLAGLCTAAQMVFVTHASAAPS
AmyQ secretion efficiency: 1.69

MKRIRIPMTLALGAALTIAPLSFSSAEEN
AmyQ secretion efficiency: 4.73

MKKRKRRNFKRFIAAFLVLALMISLVPADVLAEED
AmyQ secretion efficiency: 3.75

MMKKGLLAGALTATVLFGTCAVDVPGIISPKTAEAASR
AmyQ secretion efficiency: 2.71

MKKWTIIAVSLAIAIVLFMYTKGEAKAAGM
AmyQ secretion efficiency: 2.14

MMLSVKIAGVLTVAAAAMTAKMYATAKGN
AmyQ secretion efficiency: 5.4

MKLAKRVSALTPSTTLAITTKAKEL
AmyQ secretion efficiency: 6.55

MKKRLIAPMSGYGASLAFFAMSGSAQAAAY
AmyQ secretion efficiency: 7.43

MKRTWNVCLTALLSVLLVAGSVTFHAEAKKP
AmyQ secretion efficiency: 2.82

MKRFLIGAGVAASGWFIADHQTHSQEM
AmyQ secretion efficiency: 6.73

MKKRITYSLLALLAVVAFAFFISSKAKAAEA
AmyQ secretion efficiency: 5.19

MKVCQKSIVRFLVSLIIGTFVISVPFMANAQDD
AmyQ secretion efficiency: 2.65

MKRSMLFILVLSFLSIIVAYPIQTNASPM
AmyQ secretion efficiency: 2.84

MKKAFLVFLSVVLVTTVFLVKQQESVAQPKQL
AmyQ secretion efficiency: 4.94

MKKLSLGVASAALGLALVGGGTWAAFN
AmyQ secretion efficiency: 6

MKRFLIGAGVAAVILRKKKKAKHQTHSQEM
AmyQ secretion efficiency: 6.98

MKKKQVMLKRTAAAGLGLTALHSAPAAKAAPL
AmyQ secretion efficiency: 6.55

MKSKWMSGLLLVAVGFSFTQVMTHAGET
AmyQ secretion efficiency: 7.1

MTMLRKIIGWILLLCIIKKRRRRVIASGKEV
AmyQ secretion efficiency: 7.19

MIAYFGKCLLLVTIMFLGVLFGMQQVNHG
AmyQ secretion efficiency: 6.78

MGLGKKLMVAVAAIFMMLMIFLPGVQAAEG
AmyQ secretion efficiency: 1.54

MKKWLIIAVSLAIMYTKGEAKAAGM
AmyQ secretion efficiency: 2.92

MKKAFLVFLSVVLVTTVFLVKQQESVCQAKQL
AmyQ secretion efficiency: 4.58

MKKRLIAPMFSSLLSAASLAFFAMSGSAQAAAY
AmyQ secretion efficiency: 3.7
